Measured values as given in the supplement of paper PMC9170038.

Test system: K4 kissing-loop RNA reporter
Assay: apparent KD of K4 kissing-loop reporter; higher = weaker reporter binding
Details: Eterna round: R107
Description: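 RNA-MaP round R107: designed RNA switches with theophylline, tryptophan, arginine or FMN aptamers are transcribed on-chip within common flanks. They are titrated with a labelled K4 kissing-loop RNA reporter in RNA-MaP buffer (100 mM Tris pH 7.5, 80 mM KCl, 4 mM MgCl2), without ligand or with the indicated ligand. Median apparent KD per design.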

[1] = input ligand: theophylline 20 uM
[2] = input ligand: tryptophan 2.4 mM
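Further: bound reporter read as fluorescence of individual clusters on recovered sequencing chips by microscopy, with normalized cluster intensities fitted with a binding model.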

Sequence	apparent KD of K4 kissing-loop reporter (input ligand: FMN 200 uM) [nM]	apparent KD of K4 kissing-loop reporter (input ligand: arginine 13.2 mM) [nM]	apparent KD of K4 kissing-loop reporter (input ligand: none) [nM]	apparent KD of K4 kissing-loop reporter [1] [nM]	apparent KD of K4 kissing-loop reporter [2] [nM]
UACGUUUUAUUAACACUAAAUACAACUGAAGGAGCGACAAUAAAGUCAGGUAGGUCGCAGAAUUAAUGAGUGAUGUUCAUUUUUA [JR_ExcArginiA_Sub015]	56.2	117	65.9	92	48.1
UACUAUAGUGAUGUUAUAGAUAAACCAGAUACCAGUGUAACAUAACACCCUUGGCAGCUGAUGAGGGAAAAUAUAAAUGUGUAUU [AstrosSSTHe-A#4newdesignED10.09]	196	204	198	197	197
UACUAUAGUGAUGUUAUAGAUAAACCAGAUACCAGUGUAACAUAACACCCUUGGCAGCUGAUGAGGGAACAUAUGAAAACAUAUG [AstroSTH-A#6newdesignED4.78]	254	209	256	215	222
UACUCUCCUCCUGAUACCAGAUAAAUAUUAAUACAUUAGUGAUGUUAAUGCCCAAACCCGAUCCCUUGGCAGCAGAAUAUGCAGG [theeternabot_sameState_KL_Theo_B_25]	152	240	202	258	126
UACUUAUAGUUAUUUCUACAUUUAUUUAGUCAGGAUAUCGAUUAGUCGAGAAGGGACAAUAUCAAGUGAUGUUUGAUAAUUCAAA [JR_ExcFMNA_Sub012]	89.9	161	119	158	84.9
UAGCGUAUUGAAGGAUAUUGCCUAGGAGUGAUGUUUGUAGAAAAUUUCCAACGGAACGAAUGUUAGCAAGAAGGUCAAUGGCCUU [theeternabot_exclusion_KL_FMN_B_40]	230	239	404	456	281
UAGGAGUGAUGUUCCUUUAGCAGGUAGGAAGGAGCGCCCAUUUGGGCAGGUAGGUCGCCUACUGGCCCUAAGUUAAACCUUAGGC [KL-SSArg-A12]	160	161	146	161	118
UAGGAUUUUUCGGCCGCCACUCUAGAUUCUGUGUAUUAUCUACGACUUGAAGUGAUGUUUCAGGAGAGGACCGGGAAGAUAUAAC [theeternabot_exclusion_KL_Trp_B_27]	226	210	238	307	225
UAGGUGCCGAACCAGUGAUGUUGGAGUCAUCGAGGACCGGUACGGCCGCCACUCGGCAGCGCCGGCGCGAUUAAUUGCGGAGACA [theeternabot_sameState_KL_Trp_A_7]	689	390	596	470	698
UAGUCCUAGUGAUCCUUAUCAAGUGGUGGGCGAGGACCGGUACGGCCGCCACUCGAAUAUGCAGUGAUGUUGUAAUCCGGACAAU [Exclusion - Tryptophan A (Freestyle 11)]	897	906	852	899	580
UAGUCCUCUUCUUAUUUAUUCCCUAAUGCUAAGGAUAUCCGAAUUCGGAGAAGGUAGUGAUGUUACUUGAAGGGACAUAUUUAUU [AK6 Exc FMN A]	412	554	684	771	617
UAUAGGGAUAGUGAUGUUAUCCCAUGUGAUACCAGUGCCAUCCAACACCCUUGGCAGCAUACGGGCAGUGAUGUUGUUCUUGGUA [Exclusion Theophylline A GF 14]	102	88.9	99.1	89.5	97.2
UAUAUACAUAGAUAGUUGUAUAUCGAGGAAGGAGCGUGCGCAGGCACAGGUAGGUCGCCUCAGCGCACGAGUGAUGUUCGUGGGC [Tezale]	247	168	267	241	246
UAUAUAGUGACGGCCGCCACUAUAUUAAUGUUUUUGUUAGAGUGAUGUUUUGUUUUAUAUUUUUAUAGGACCGGGUUAUAUGUUA [klppxmullin]	497	377	626	480	404
UAUAUAGUGACGGCCGCCACUAUUGUGAUGUAGUUGUUAGAGUGAUGUUUUGUUGUUUGAUUUUGUAGGACCGGGUUAUAUGUUA [rccrwzmullin]	842	565	812	612	668
UAUAUAGUGACGGCCGCCACUAUUGUGAUGUUGUUGUUAGAGUGAUGUUUUGUUGUUUGAUUUUGUAGGACCGGGUUAUAUGUUA [ffdfzmullin]	780	500	615	567	562
UAUGGAGUGAUGUUCCGUAUGACUGUCGAUACCAGCCUGUGCCUUGGCCCUUGGCAGCGAAAAGCAUCGGCUAAUGUCGCGUCAU [Onaraed]	201	191	194	221	184
UAUGUACACGGGUAGUGGUACAUCGAGGAAGGAGCGUGCGCAGGCACAGGUAGGUCGCCUCAGCGCACGAGUGAUGUUCGUGGGC [Inares]	327	259	306	298	265
UAUUAAUUGUCAGGAUAUCGAAAUCGAGUGAUGUUCGUAAAUUAAUUAUUAUUAAUAAUAUUUAUACGAGAAGGGACAUUAUUUA [JR_SSFMNB_Sub002]	236	671	758	780	532
UAUUGGAGUGAUGUUCCAUUAACGAUCCUACGAGGACCGGUACGGCCGCCACUCGAAAUGCAGUGAUGUUGCAGCCAGCCGUAAA [Exclusion Trptophan A GF 7]	174	167	183	188	162
UCAAGAGAACUUAAAUUUGAUCAACGCUCGCGAGGACCGGUACGGCCGCCACUCGACCGUUAGUGCCUCAUCCAGUGAUGUUGGG [theeternabot_sameState_KL_Trp_A_6]	537	394	500	508	476
